Measurements: paper doi:10.1101/2025.10.29.685329 (bioRxiv, 2025)
No end group written: not given here.

T1: GST-PGK1 (UniProt P00558 1-417)
T1 sequence (looked up): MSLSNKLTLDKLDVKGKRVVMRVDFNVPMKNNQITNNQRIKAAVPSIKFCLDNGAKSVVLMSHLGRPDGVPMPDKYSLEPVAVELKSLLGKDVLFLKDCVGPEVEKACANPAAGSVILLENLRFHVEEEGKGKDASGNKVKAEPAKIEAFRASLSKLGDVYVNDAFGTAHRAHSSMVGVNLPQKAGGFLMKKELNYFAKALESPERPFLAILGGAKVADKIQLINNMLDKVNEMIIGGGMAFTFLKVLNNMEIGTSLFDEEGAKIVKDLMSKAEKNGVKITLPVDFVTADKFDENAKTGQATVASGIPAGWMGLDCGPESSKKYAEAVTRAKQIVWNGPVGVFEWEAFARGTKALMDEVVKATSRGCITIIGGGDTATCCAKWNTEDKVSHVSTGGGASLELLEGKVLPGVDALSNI

T2: His-PGK1 (UniProt P00558 1-417)
T2 sequence (looked up): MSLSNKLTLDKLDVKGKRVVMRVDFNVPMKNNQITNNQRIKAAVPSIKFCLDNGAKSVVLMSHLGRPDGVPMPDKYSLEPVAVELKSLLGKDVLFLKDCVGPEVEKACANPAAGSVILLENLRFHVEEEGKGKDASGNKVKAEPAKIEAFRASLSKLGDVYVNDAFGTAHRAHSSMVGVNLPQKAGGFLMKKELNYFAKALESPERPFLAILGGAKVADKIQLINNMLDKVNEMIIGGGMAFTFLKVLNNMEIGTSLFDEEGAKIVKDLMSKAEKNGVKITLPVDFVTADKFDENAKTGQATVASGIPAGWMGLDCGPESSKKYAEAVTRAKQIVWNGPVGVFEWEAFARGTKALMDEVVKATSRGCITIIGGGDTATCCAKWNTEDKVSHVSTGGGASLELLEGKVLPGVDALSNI


Key:
GST-PGK1 = molecular target: T1, GST-PGK1; assay: co-sedimentation
His-PGK1 = molecular target: T2, His-PGK1; assay: pull-down

binding result (GST-PGK1) | binding result (His-PGK1) | Binder
binds | – | HHHHHHSAFSNLFGGEPLSYTRFSL (not fully specified) [His-Tyr peptide (lipid-linked tyrosine-based motif)]
– | binds | GST-TfR1-61 (TfR cyto), wild type (domain or fragment, UniProt P02786 1-61, looked up) MMDQARSAFSNLFGGEPLSYTRFSLARQVDGDNSHVEMKLAVDEEENADNNTKANVTKPKR
